Measured values from the supplement of paper PMC10126150.
± gives the standard deviation of the averaged measurements.

test system: ATP; test: switch fluorescence ratio, 500 uM ATP over buffer (Cy3 cluster intensity, sum of 5 cycles each) (fold (ratio)); higher = stronger signal-on switching upon ATP binding; sequences stand for … in TCGTCGGCAGCGTCAGATGTGTATAAGAGACAGTTTTTTTTTTTTTTTTTTTTTTTTT…TC; details: aptamer strand: ATP DNA aptamer (quencher-CACCTGGGGGAGTATTGCGGAGGAAGG + anchor), 100 nM annealed; ATP concentration: 500 uM
Outline: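 Switching-strand clusters labelled with Cy3 on a modified Illumina MiSeq flow-cell were annealed to 100 nM quencher-labelled ATP aptamer, imaged in selection buffer, and re-imaged after 15 min with 500 uM ATP at 22 °C. This was done over five cycles with NaOH stripping and re-annealing in between. The fluorescence ratio is summed target-cycle over summed buffer-cycle Cy3 intensity per cluster, averaged per switch-domain sequence, excluding clusters outside 100-1000 RFU.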
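Note: ATP exposure 15 min at 22 °C before imaging.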

Sequence	switch fluorescence ratio
AAGCTGGCTT	1.024 ± 0.0056
GCCTGTTGCA	0.9709 ± 0.0037
TCGATACTTT	1.03 ± 0.021
TGTGTACCGG	1.01 ± 0.028
CTAAGTCGAG	0.966 ± 0.037
CATTGTTGTT	1.01 ± 0.0098
AGAGGCCGGG	1 ± 0.032
GATTCCGGAC	1.032 ± 0.0054
CGGTAACAAA	1.01 ± 0.019
TCCGGGTAGG	1.036 ± 0.0049
GAATGGCGTA	1.02 ± 0.046
TAATATAGTG	1.02 ± 0.045
ATATGGAGCA	1.03 ± 0.046
TCGAAGCCAG	1.061 ± 0.0045
ATGCGCACGG	1.064 ± 0.009
TAGTAGTCGG	0.963 ± 0.036
GAGCTAAGCT	0.981 ± 0.018
ATCTTTTGAG	0.97588 ± 0.00047
CGGGTACGGT	0.992 ± 0.022
GAGGTTGCTG	0.987 ± 0.026
TTTGCGGGAT	1.03 ± 0.014
CTGATAGTTG	1.04 ± 0.0013
CCTGTGATAT	1.3 ± 0.031

Sequence	switch fluorescence ratio
ATTTGATTGT	0.98 ± 0.034
AGTGGCACTG	0.996 ± 0.0088
AGGTTATTA	0.9856 ± 0.0031
TTTTCAGGCG	1 ± 0.07
TGGCTCCCGC	1.089 ± 0.0041
GCAGCCGTGT	1.03 ± 0.04
AACGGGGTAA	0.948 ± 0.037
TTGGCGGGCA	0.998 ± 0.027
TGATTCTGTG	1.02 ± 0.03
CATTATTATG	1.03 ± 0.036
CCAAATGTCT	1.016 ± 0.0049
ACTAGGGGGG	1.01 ± 0.022
TAAGGAATGT	1.04 ± 0.0038
TGCTGGGTAT	0.9954 ± 0.0031
TTGGTGTGTG	0.958 ± 0.022
CCGTTTTTAT	1.01 ± 0.018
AGCTGTTTAC	1.09 ± 0.016
GTGCGAGAGC	1.01 ± 0.043
TTGTTCGAGG	0.988 ± 0.026
CATGCGGATG	1.001 ± 0.0056
GGGTACTGGG	1 ± 0.034
CCACCTTACG	1.54 ± 0.077
GCGCAAATCG	1.009 ± 0.01

Sequence	switch fluorescence ratio
ACACTAGGGC	1.04 ± 0.02
AGGCTTGGTG	0.988 ± 0.012
TTAGTTATTT	0.999 ± 0.035
TCTGCCACCT	1.023 ± 0.0075
AGCCGGCCTG	1.02 ± 0.017
TTCTCTATTT	0.983 ± 0.028
GTGTGGCAGG	0.992 ± 0.024
AACCTTCGTG	1.62 ± 0.047
TTTCCTTGAA	0.974 ± 0.017
TAATTTCTAA	0.9946 ± 0.0029
TTGGCGTCCG	0.988 ± 0.047
GAGGGGGCGC	1.02 ± 0.031
TCATCTCTGG	0.992 ± 0.024
GAGGGTTTGG	0.989 ± 0.037
TGGGGGGAC	1.01 ± 0.061
ACTGGTTATC	1.02 ± 0.046
ATTTGTTGTG	1.01 ± 0.041
ACTGGATTTG	0.9885 ± 0.002
TGACTATT	0.9948 ± 0.004
TGTGTTGTGG	0.997 ± 0.028
GGGCATGCAG	0.966 ± 0.018
TATAGGTGAG	1.01 ± 0.03
GGGCCTTTAT	1.017 ± 0.0089

Sequence	switch fluorescence ratio
AAGGTTGCGA	0.9571 ± 0.0024
TAATGTAAAA	0.992 ± 0.01
GGTTATGGCT	0.9973 ± 0.0025
ACTCGGTTTG	0.949 ± 0.067
AAGTTTGACC	0.978 ± 0.032
GATAGTTTGT	1 ± 0.011
CCCGGACGGT	1 ± 0.025
AGTGAGTGCA	1.039 ± 0.0094
TGGGAGCAGG	1.05 ± 0.079
GGTCATAATT	0.986 ± 0.025
CGAGGACTTC	1.02 ± 0.012
AATATTATGG	1 ± 0.016
CCCGGTATCG	0.983 ± 0.013
TAGCGGGTAC	1.28 ± 0.087
TTGCTGTTGC	1.001 ± 0.0095
TGAATACGGG	1.006 ± 0.004
GATATAGGCG	1.05 ± 0.047
TCGTCCGGCG	0.96503 ± 0.00055
GCGGAGTCGG	0.996 ± 0.053
GTTTGTAGTT	0.968 ± 0.037
TTTAAAAGA	1 ± 0.02
TAGGGGAACC	0.9693 ± 0.0092
CTAAGTTCTT	0.987 ± 0.008

Sequence	switch fluorescence ratio
TTTGTGATGG	0.954 ± 0.026
GTTGTGAGAG	0.999 ± 0.054
CCGTTTATAT	1.4 ± 0.13
CTGGTCGTGC	0.999 ± 0.013
TTTCGGGTGG	0.979 ± 0.023
TTAGTTGAGG	0.987 ± 0.05
GAGACAGGAT	1.01 ± 0.04
CGAGCCCTTA	0.986 ± 0.059
GGGGACAAGT	1.0212 ± 0.00058
AGTTTATAAT	0.982 ± 0.023
GGGGGAACCG	0.994 ± 0.08
AAGTTCAGTT	1.01 ± 0.016
CGTTTGGTAG	0.964 ± 0.019
CATGTATGT	1.07 ± 0.03
CGGACTGATT	1 ± 0.064
ACCGCTCGAA	1.15 ± 0.056
GTGTATAGTT	1.02 ± 0.056
TTGACCCAGG	1.23 ± 0.11
TTTAGTCCCC	1.06 ± 0.046
CTGAGAATGG	1.02 ± 0.011
ATAATTGAAG	0.99 ± 0.027
TTTTCGATGG	1.01 ± 0.016
TGCGTAGGGT	0.967 ± 0.011

Sequence	switch fluorescence ratio
TAGCAAAAGG	1.03 ± 0.015
GGAGCGAGGG	1.11 ± 0.061
CTGGTTAGGT	1.01 ± 0.02
AATGGGGGGA	0.998 ± 0.057
GTTAGTTGGT	0.993 ± 0.017
TAGGGCGGGG	0.988 ± 0.025
GGATATGGTT	0.987 ± 0.034
GGAGATATTA	1.01 ± 0.026
AGTACGTCTC	1.04 ± 0.0099
GGGCTAGTTC	1.05 ± 0.077
GGGTAATTGA	0.99 ± 0.032
CAATGCGTTT	0.998 ± 0.038
GGGGTATCGA	0.998 ± 0.039
AATCATGGT	0.978 ± 0.019
ACATTATTTC	1.05 ± 0.033
GTAGGCGGTG	0.984 ± 0.029
TCTTACAGTA	1.09 ± 0.04
CATAATTAAT	0.955 ± 0.023
TCGGAGATTT	0.97302 ± 0.00083
TTAGGGTGGT	0.99 ± 0.018
TTGCACAAAA	1.033 ± 0.0078
TAATTTTAAT	1.025 ± 0.0087
GGTTTTTATG	1.004 ± 0.009

Sequence	switch fluorescence ratio
TAACAGAGGT	1.01 ± 0.033
AAATTGGGTA	0.991 ± 0.024
AGAATAATGG	1 ± 0.022
AAAGGGAGGG	1 ± 0.02
TTTTTTCGTG	1.001 ± 0.0077
CATAAGGCAA	1.282 ± 0.0088
ACAGAGGGAT	1.02 ± 0.018
AGGGCGGGAT	0.965 ± 0.049
GGCGGGGGAG	1.03 ± 0.021
TTCATGTGAA	1 ± 0.04
TTTAGGAGGG	0.997 ± 0.019
CGATTGTATG	0.992 ± 0.054
TAAGTGGGTT	0.992 ± 0.034
CCACGGACAA	1.645 ± 0.0082
GAGCAAGGTT	1.24 ± 0.2
CGGGTATTTC	1.01 ± 0.014
TTTCGGAACA	1.001 ± 0.0066
GTGAGCATGT	1.01 ± 0.024
TTAAGGAATT	0.999 ± 0.036
